The values below are quoted from earlier work in publication PMC11724285.

The subject of this series is NF-κB (subunit not stated).

The Kd is the equilibrium constant for the complex coming apart. For “GAUACUUGAAACUGUAAGGUUGGCGUAUA [NF-κB RNA aptamer (29 nt)]”, the Kd is 5 nM.
